From article PMC8562477 come the findings set out here.

The test system of the data set is T1, MBP-RstA D52A D52A (Pseudomonas fluorescens 2P24), ORF:4a43b447.
T1 sequence: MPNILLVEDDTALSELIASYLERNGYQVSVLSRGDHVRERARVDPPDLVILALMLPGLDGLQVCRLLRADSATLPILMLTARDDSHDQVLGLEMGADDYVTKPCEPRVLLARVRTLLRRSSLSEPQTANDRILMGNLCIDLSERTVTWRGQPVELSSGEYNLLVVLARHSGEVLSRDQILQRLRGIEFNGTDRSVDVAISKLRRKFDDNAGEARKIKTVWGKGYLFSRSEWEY
Briefly: EMSA. As to conditions: EMSA: 50 mM Tris-HCl pH 7.5, 10 mM MgCl2, 10% glycerol, 0.5 mM EDTA, 50 mM KCl, 3 uM BSA, 50 ng DNA in 20 ul, 30 min room temperature, 6% native PAGE. On the technique in general: A gel shift assay detects complexes by their altered migration in electrophoresis.

As to “GGCAATAAACACCTCAATCAGGATGCGTCAGCAATGCGTAAGCATCAGCTGAACAAAATATGAGGCGACGTCTCTTGAAACGCGTCTCCGATCTATACAGGCCTTTGTCAGGCTTTTGTAAATCCGGATATTACGCAATTTGGCTGTTTACAAACAACCGTGTACGTAAGTATATTTCTTAGCATCCTACTAATTGAAAAAATGCTCCTTTTTTACCCTTCCACCTTTCGAGTGCGCCAGTTACGCGCCTGGACCCGAGGATTT (double strand) [FAM-emhA promoter]”, the binding entry is on record as “binds more weakly”.
Regarding “CGGCCTGTGTGATTACACAATTTCACAGAGCGCCTACAAAGCTTCACCCCTGTCATGGGCCTGGATCCCTACCATGAGCGGCTCAATATTGGGGAAGCACC (double strand) [FAM-mexC promoter]”, the binding entry is listed as “binds more weakly”.
